# Assays:
# [1] = biological target: KR127 antibody (murine monoclonal antibody)
# [2] = biological target: humanized antibody HzKR127-3.1
# [3] = biological target: humanized antibody HzKR127-3.2
# [4] = biological target: humanized antibody HzKR127-3
# Chain of humanized antibody HzKR127-3 (VH, as listed by the source limits assumed, chain 1 of 2): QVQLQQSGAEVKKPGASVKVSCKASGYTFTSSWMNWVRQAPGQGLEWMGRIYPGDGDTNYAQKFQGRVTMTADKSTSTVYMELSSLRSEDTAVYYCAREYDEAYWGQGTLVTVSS
# Chain of humanized antibody HzKR127-3 (VL, as listed by the source limits assumed, chain 2 of 2): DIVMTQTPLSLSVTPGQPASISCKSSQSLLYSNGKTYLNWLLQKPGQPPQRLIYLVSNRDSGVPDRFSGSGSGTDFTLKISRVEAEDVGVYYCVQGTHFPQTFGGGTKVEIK
# Chain of GST-pre-S1 (1st to 56th amino acids) protein (P08515 whole entry): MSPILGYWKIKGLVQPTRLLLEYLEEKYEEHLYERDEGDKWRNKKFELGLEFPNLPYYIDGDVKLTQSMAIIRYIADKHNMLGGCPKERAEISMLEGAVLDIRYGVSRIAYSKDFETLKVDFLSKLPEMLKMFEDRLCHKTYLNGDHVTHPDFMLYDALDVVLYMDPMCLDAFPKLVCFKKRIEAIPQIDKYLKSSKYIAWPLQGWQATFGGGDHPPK
# Chain of humanized antibody HzKR127-3.1 (VH, as listed by the source, chain 1 of 2): as the sequence (VH, as listed by the source limits assumed, chain 1 of 2) above, with D101A counted along it
# Chain of humanized antibody HzKR127-3.1 (VL, as listed by the source, chain 2 of 2): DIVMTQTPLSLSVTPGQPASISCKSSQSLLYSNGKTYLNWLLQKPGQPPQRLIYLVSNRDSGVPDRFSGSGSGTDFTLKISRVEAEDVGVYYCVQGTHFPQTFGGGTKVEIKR
# Chain of KR127 antibody (murine monoclonal antibody) (VH, as listed by the source, chain 1 of 2): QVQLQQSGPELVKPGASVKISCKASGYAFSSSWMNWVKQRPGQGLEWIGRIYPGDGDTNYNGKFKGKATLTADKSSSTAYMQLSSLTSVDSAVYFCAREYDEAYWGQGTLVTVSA
# Chain of KR127 antibody (murine monoclonal antibody) (VL, as listed by the source, chain 2 of 2): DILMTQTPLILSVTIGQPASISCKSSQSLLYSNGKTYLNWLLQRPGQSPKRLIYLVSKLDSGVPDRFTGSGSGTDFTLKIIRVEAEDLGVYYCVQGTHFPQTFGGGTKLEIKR
# Chain of humanized antibody HzKR127-3.2 (VH, as listed by the source, chain 1 of 2): as the sequence (VH, as listed by the source limits assumed, chain 1 of 2) above, with N59S, D101A counted along it
substance,measurement,setting,value
GST-pre-S1 (1st to 56th amino acids) protein (from UniProt P08515 1-218),IC50 (read off the curve),[1],20 nM
same,IC50 (read off the curve),[2],6 nM
same,IC50 (read off the curve),[3],2 nM
same,IC50 (read off the curve),[4],30 nM
